Reference: patent US20240425607A1, “IL-18BP ANTAGONIST ANTIBODIES AND THEIR USE IN MONOTHERAPY AND COMBINATION THERAPY IN THE TREATMENT OF CANCER” (Compugen Ltd., priority 2023, published 2024)

Columns and labels:
[1] = molecular target: human IL-18BP (recombinant, construct not stated) (human) (UniProt O95998); assay: Biacore
[2] = molecular target: human IL-18BP (recombinant, construct not stated) (human) (UniProt O95998); assay: KinExA
[3] = molecular target: cynomolgus monkey IL-18BP (construct not stated) (cynomolgus monkey); assay: KinExA, solution equilibrium

Sequence of human IL-18BP (recombinant, construct not stated) (human) (O95998 31-194 limits assumed): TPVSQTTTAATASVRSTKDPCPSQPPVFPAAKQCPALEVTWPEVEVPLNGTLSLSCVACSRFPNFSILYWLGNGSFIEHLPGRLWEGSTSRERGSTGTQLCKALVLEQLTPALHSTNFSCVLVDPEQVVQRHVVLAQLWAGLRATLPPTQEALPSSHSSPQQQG

anti-human IL18BP antibody clone 136007 (cat. MAB1191, R&D systems)
Kd [1]: 0.273 nM

anti-human IL18BP antibody clone W19089C (cat. 947703, Biolegend)
Kd [2]: 0.0638 nM

cyno IL-18 (from UniProt A0A2K5TJ84 37-193) (ligand)
Kd [3]: 0.000345 nM
